The values below come from publication PMC7338535 (Scientific Reports, 2020).

Usually stoichiometry N stands for the number of molecules, sites or subunits per partner or assembly.

The data set deals with the molecule itself. In words: crystal structure; apo DiB3, crystals grown at 21 °C in 0.8 M sodium citrate, 50 mM sodium borate, 0.1 sodium acetate, pH 3.5; one chain in the asymmetric unit, dimer with a crystallographic symmetry mate.

B1: DiB3 (natural protein)
chain: LESTSLYKKSSSTPPRGVTVVNNFDAKRYLGTWYEIARFDHRFERGLEKVTATYSLRDDGGLNFINKGYNPDRGMWQQSEGKAYFTGAPTRAALKVSFFGPFYGGYNVIALDREYRHALVCGPDRDYLWIQSRTPTISDEVKQEMLAVATREGFDVSKFIWVQQPGS
With B1, the “stoichiometry N” value stood at 2.
